The results in this text go back to patent publication US11236354B2, “Glyphosate-n-acetyltransferase (GLYAT) sequences and methods of use” (PIONEER HI-BRED INTERNATIONAL, INC., priority 2013, dated 2022).

The subject of one data set is N[C@@H](CC(=O)O)C(=O)O. As to the kind of experiment: cells, lysate or membranes named. To be noted: 37.0 °C.
Data set [1] has as its system O=C(O)CNCP(=O)(O)O. Description: cells, lysate or membranes named. To be noted: 37.0 °C.
In data set [2] the test system is O=C(O)CNCP(=O)(O)O. As to the kind of experiment: Substrate saturation kinetic analysis of purified GLYAT. It counts as biochemical. To be noted: other: SEQ ID NO:7, pH 7.0, non-varied substrate saturating, 37.0 °C. As to the method:
E. coli cultures in LB or 2×YT were grown overnight at 37° C. to saturation. The cells were used as a 2% inoculum into fresh media. When OD reached 0.6, IPTG was added to 0.2 mM and growth was continued for at least 6 hours. Cells were harvested by centrifugation and stored at −80° C. Cells were lysed with BPER (Pierce) containing 1 mM dithiothreitol, 0.2 mg/ml lysozyme, 2 mg/ml protease inhibitor cocktail (Sigma bacterial cell cocktail, P8465) and endonuclease. Lysate supernatants were passed through a column of NHS-activated Agarose (Thermo, #26197) derivatized with coenzyme A. Columns were washed with 25 mM Hepes, pH 7, containing progressively higher concentrations of KCl, then eluted with 25 mM Hepes, 100 mM KCl, 10% ethylene glycol and 1 mM acetyl CoA. Purity as evaluated by polyacrylamide gel electrophoresis was deemed consistently high enough to be assumed to be 100%. Protein concentration was determined with the Bradford assay using a large-scale lot of produced GLYAT protein as standard.
Kinetic parameters for various substrates were obtained using a range of seven substrate concentrations plus a blank containing none of the varied substrate. The non-varied substrate was present at a saturating concentration. Six-microliter aliquots of 50-fold concentrated stock solutions of the varied substrate were placed in a 96-well assay plate (Greiner BioOne UV-Star). […] Absorbance was monitored for one minute with a Spectramax 384 Plus plate reader (Molecular Devices). If the amino acid present at position 30 (29 if alanine is absent at position 2) was cysteine, absorbance was monitored at 235 nm, which directly detects cleavage of the sulfoester bond of acetyl CoA. If the amino acid present at position 30 (29 if alanine is absent at position 2) was isoleucine, 0.5 mM 5,5′-dithiobis-(2-nitrobenzoic acid), which reacts with the coenzyme A thiol generated in the enzyme catalyzed reaction, was included in the reaction mix and absorbance was monitored at 412 nm. […]

[3] abbreviates: other: SEQ ID NO:1, pH 7.0, non-varied substrate saturating.
The mark [4] stands for this setting: other: SEQ ID NO:2, pH 7.0, non-varied substrate saturating.
The mark [5] stands for this setting: other: SEQ ID NO:3, pH 7.0, non-varied substrate saturating.
Where [6] appears, read: other: SEQ ID NO:4, pH 7.0, non-varied substrate saturating.
Setting [7] is: other: SEQ ID NO:5, pH 7.0, non-varied substrate saturating.
The mark [8] stands for this setting: other: SEQ ID NO:6, pH 7.0, non-varied substrate saturating.
Setting [9] is: other: SEQ ID NO:8, pH 7.0, non-varied substrate saturating.
Where [10] appears, read: other: SEQ ID NO:9, pH 7.0, non-varied substrate saturating.
The mark [11] stands for this setting: other: SEQ ID NO:10, pH 7.0, non-varied substrate saturating.

Consider “GLYAT (glyphosate-N-acetyltransferase), parent, SEQ ID NO:1 (Bacillus licheniformis DSM 13 = ATCC 14580; E119R/E14D/E65Q/E67K/E68K/G37R/G38S/I132T/I135V/I15L/I19V/I53V/I91V/K101R/K144R/K58Q/L105M/L106I/L145I/L26I/L36T/L97I/M75V/R47G/R92K/T33S/T89S/V114A/Y130F/Y31F/Y45F)”, for which, in the data set on N[C@@H](CC(=O)O)C(=O)O (setting [3]), the Km (usually the concentration of substrate that gives half-maximal velocity) turned out to be 32900 µM; the kcat (usually the number of substrate molecules converted per active site and unit of time at saturation) amounted to 7.3 s⁻¹; the kcat/Km (as a rule, the turnover number divided by the Michaelis constant) worked out at 229 M⁻¹ s⁻¹. Moreover, in the data set on O=C(O)CNCP(=O)(O)O [1] (setting [3]), the Km came out at 1360 µM, the turnover number (kcat) amounted to 24.23 s⁻¹ and the kcat/Km is 18000 M⁻¹ s⁻¹.
On to “GLYAT (glyphosate-N-acetyltransferase), parent, SEQ ID NO:2 (Bacillus licheniformis DSM 13 = ATCC 14580; A28V/D131E/E119K/E63D/E65Q/E67Q/E68K/E83D/E96Q/G37R/I132T/I135V/I15L/I2L/K101R/K144R/K58Q/L105M/L97I/R18K/T89S/V114A/Y130F/Y45F)”, for which, in the data set on N[C@@H](CC(=O)O)C(=O)O (setting [4]), the Michaelis constant (Km) is 47600 µM, the kcat was 0.887 s⁻¹ and the kcat/Km worked out at 18.7 M⁻¹ s⁻¹. Moreover, in the data set on O=C(O)CNCP(=O)(O)O [1] (setting [4]), the Km came to 1380 µM, the catalytic constant (kcat) turned out to be 4.52 s⁻¹ and the kcat/Km was 3270 M⁻¹ s⁻¹.
Take “GLYAT variant SEQ ID NO:3 (derived from SEQ ID NO:1 and 2) (Bacillus licheniformis DSM 13 = ATCC 14580; A28V/D131E/E119K/E14D/E65Q/E67K/E68K/E83D/G37R/I132T/I135V/I15L/I19V/I2L/I53V/I91V/K101R/K144R/K58Q/L105M/L106I/L26I/L97I/M75V/R47G/R92K/T89S/V114A/Y130F/Y45F)”: in the data set with N[C@@H](CC(=O)O)C(=O)O (setting [5]), the Km came out at 35100 µM, the kcat stood at 2.72 s⁻¹ and the kcat/Km worked out at 77.8 M⁻¹ s⁻¹. In the data set on O=C(O)CNCP(=O)(O)O [1] (setting [5]), the Km was determined as 600 µM, the catalytic constant (kcat) stood at 11.6 s⁻¹ and the kcat/Km stood at 19320 M⁻¹ s⁻¹.
For “GLYAT variant SEQ ID NO:4 (derived from SEQ ID NO:1 and 2) (Bacillus licheniformis DSM 13 = ATCC 14580; D131E/E14D/E65Q/E67K/E68K/G37R/G38S/I132T/I135A/I15L/I19V/I53V/I91V/K101R/K144R/K58Q/L105M/L26I/L36T/L97I/M75V/R47G/R92K/T33S/T89S/V114A/Y130F/Y31F/Y45F)”, in the data set on N[C@@H](CC(=O)O)C(=O)O (setting [6]), the Km was determined as 78300 µM, the kcat worked out at 2.27 s⁻¹ and the kcat/Km worked out at 29 M⁻¹ s⁻¹. Further, in the data set with O=C(O)CNCP(=O)(O)O [1] (setting [6]), the Michaelis constant (Km) came to 1960 µM, the kcat is 26.88 s⁻¹ and the kcat/Km is 13800 M⁻¹ s⁻¹.
On to “GLYAT variant SEQ ID NO:5 (derived from SEQ ID NO:1 and 2) (Bacillus licheniformis DSM 13 = ATCC 14580; A28V/D131E/E14D/E65Q/E67K/E68K/G37R/I132T/I135A/I15L/I19V/I53V/I91V/K101R/K144R/K58Q/L105M/L106I/L26I/L97I/M75V/R47G/R92K/T89S/V114A/Y130F/Y45F)”, for which, in the data set with N[C@@H](CC(=O)O)C(=O)O (setting [7]), the Km was 79100 µM, the kcat was 3.58 s⁻¹ and the kcat/Km is 45.3 M⁻¹ s⁻¹. Further, in the data set with O=C(O)CNCP(=O)(O)O [1] (setting [7]), the Km came to 230 µM, the kcat amounted to 16.98 s⁻¹ and the kcat/Km was found to be 76470 M⁻¹ s⁻¹.
For “GLYAT variant SEQ ID NO:6 (derived from SEQ ID NO:1 and 2) (Bacillus licheniformis DSM 13 = ATCC 14580; A28V/D131E/E119K/E14D/E65Q/E67K/E68K/G37R/I132T/I135A/I15L/I19V/I53V/I91V/K101R/K144R/K58Q/L105M/L106I/L26I/L36T/L97I/M75A/R47G/R92K/T89S/V114A/V4I/Y130F/Y45F/Y46C)”, in the data set with N[C@@H](CC(=O)O)C(=O)O (setting [8]), the Km was 66800 µM, the kcat amounted to 0.183 s⁻¹ and the kcat/Km is 2.67 M⁻¹ s⁻¹. In the data set with O=C(O)CNCP(=O)(O)O [1] (setting [8]), the Michaelis constant (Km) came out at 2240 µM, the kcat came out at 11.2 s⁻¹ and the kcat/Km came out at 5130 M⁻¹ s⁻¹.
As for “GLYAT variant SEQ ID NO:7 (derived from SEQ ID NO:1 and 2) (Bacillus licheniformis DSM 13 = ATCC 14580; A28V/D131E/E119K/E14D/E65Q/E67K/E68K/E79G/E83D/G37R/G38S/G48A/I132L/I135A/I15L/I19V/I2L/I53V/I91V/K101R/K144R/K58Q/L105M/L106I/L26I/L36T/L97I/M75V/N109F/R47G/R92K/T33S/T89S/V114A/Y130F/Y31W/Y45F)”, in the data set with O=C(O)CNCP(=O)(O)O [2], the Michaelis constant (Km) came to 800 µM, the kcat is 7.13 s⁻¹ and the kcat/Km was 8870 M⁻¹ s⁻¹.
As to “GLYAT variant SEQ ID NO:8 (derived from SEQ ID NO:1 and 2) (Bacillus licheniformis DSM 13 = ATCC 14580; A28V/D131E/E119K/E14D/E65Q/E67K/E68K/E83D/G37R/G38S/I132T/I135A/I15L/I53V/I91V/K101R/K144R/K58Q/L105M/L106I/L26I/L36T/L97I/M75V/N8S/R47G/R92K/T89S/V114A/Y130F/Y45F)”, in the data set on N[C@@H](CC(=O)O)C(=O)O (setting [9]), the Km was determined as 60000 µM, the kcat turned out to be 1.42 s⁻¹ and the kcat/Km turned out to be 23.5 M⁻¹ s⁻¹. Further, in the data set with O=C(O)CNCP(=O)(O)O [1] (setting [9]), the Km was 390 µM, the turnover number (kcat) came out at 11.4 s⁻¹ and the kcat/Km worked out at 29650 M⁻¹ s⁻¹.
For the substance “GLYAT variant SEQ ID NO:9 (derived from SEQ ID NO:1 and 2) (Bacillus licheniformis DSM 13 = ATCC 14580; A28V/D131E/E119K/E14D/E65Q/E67K/E68K/G37R/G38S/I132T/I135A/I15L/I19V/I53V/I91V/K101R/K144R/K58Q/L105M/L26I/L97I/M75V/R47G/R92K/T89S/V114A/Y130F/Y45F)”, in the data set with N[C@@H](CC(=O)O)C(=O)O (setting [10]), the Km amounted to 78700 µM, the kcat came to 2.58 s⁻¹ and the kcat/Km came to 33.3 M⁻¹ s⁻¹. Further, in the data set on O=C(O)CNCP(=O)(O)O [1] (setting [10]), the Km was 250 µM, the catalytic constant (kcat) amounted to 11.6 s⁻¹ and the kcat/Km is 45430 M⁻¹ s⁻¹.
Regarding “GLYAT variant SEQ ID NO:10 (derived from SEQ ID NO:1 and 2) (Bacillus licheniformis DSM 13 = ATCC 14580; A28V/D131E/E14D/E65Q/E67K/E68K/G37R/G38S/H61R/I132T/I135A/I15L/I19V/I53V/I91V/K101R/K144R/K58Q/L105M/L106I/L26I/L97I/M75V/R47G/R92K/T89S/V114A/Y130F/Y45F)”, in the data set with N[C@@H](CC(=O)O)C(=O)O (setting [11]), the Km turned out to be 89300 µM, the kcat turned out to be 2.48 s⁻¹ and the kcat/Km was 28.2 M⁻¹ s⁻¹. Further, in the data set with O=C(O)CNCP(=O)(O)O [1] (setting [11]), the Km turned out to be 370 µM, the kcat came to 11.6 s⁻¹ and the kcat/Km amounted to 31680 M⁻¹ s⁻¹.
